According to paper PMC4118443 (2014):

Molecular target: T1, NS5A 347-361 (Hepatitis C virus, UniProt P26664)
T1 chain: PKSPPVPPPRKKRTV
Test: fluorescence titration

B1: Bin1 SH3 (protein)
chain: LPPGFMFKVQAQHDYTATDTDELQLKAGDVVLVIPFQNPEEQDEGWLMGVKESDWNQHKELEKCRGVFPENFTERVP
Kd: 200 nM
